The text below walks through data of the supplement of paper PMC12042874.

This data set is described as follows: amyloid nucleation score (Sup35N fusion, yeast selection) (log enrichment); library NNK1; higher = more nucleation; inactive = no reads after selection. In a few lines: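 Plasmid inserts were Illumina-sequenced at input and output from psi-negative yeast expressing Sup35N fused to peptides of 20 random codons. The yeast were induced with 100 μM copper sulfate for 24 hours and grown 7 days at 30°C on medium lacking adenine and uracil, and sequences with under 100 input reads were excluded. Nucleation score is the DiMSum log enrichment of output over input reads, centred on the mode score of non-aggregating sequences.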

± gives the uncertainty stated by the source.

On to INFCRSPMPWNGSALVNLMV, for which the amyloid nucleation score is -0.014 ± 0.53.
Substance YWCRSSLFRFMGLRYESRMY showed an amyloid nucleation score of 0.359 ± 0.51.
In the case of GFTFVLLLSLGLVGWCETVK, the amyloid nucleation score was -0.511 ± 0.68.
For VVCQVNIHLNGVCLHRCLEE the value was 6.862 ± 0.059.
For ILTLIMAL, the amyloid nucleation score worked out at 0.013 ± 0.33.
For VGDVTGF the value was 0.154 ± 0.95; for VLGKCVNR, -0.366 ± 0.21.
Consider QAFSNESVTRDLLCG, for which the amyloid nucleation score is -0.957 ± 0.64.
The substance VCCSATISTIVFSYFYTGKR returned an amyloid nucleation score of 7.506 ± 0.053.
Consider LCGTMWAG, for which the amyloid nucleation score was found to be 0.62 ± 0.51.
With VVFSWRIDSFGREEKGA, the amyloid nucleation score turned out to be 0.349 ± 0.81.
On to CPWTVMLHFSYDYCARGFKV, for which the amyloid nucleation score is -0.505 ± 0.57.
Substance VGSSNTTNKYPGFCCWRFDG returned an amyloid nucleation score of 0.444 ± 0.53.
For LYVVSSVFLGEPVRKQVYQI the value was -0.678 ± 0.96.
For YVWAAIGVRLYSRHK the value was -0.002 ± 1.4; for GRYVSSWFWFRFMQVQANTN, 0.248 ± 0.31; for VKLCRACCYEYWRHHSPLGC, 0.594 ± 0.43.
For EFVVGDKR the value was -0.311 ± 0.82; for FTDTICCIVMQFKPKRSGSS, 4.87 ± 0.088.
With VLGLGRENSLRVNFYRLCKS, the amyloid nucleation score result is “inactive”.
For YLNYWFR the value was -0.341 ± 0.28; for LEMGDPCQYCLDLFAGYPSG, 0.549 ± 0.55.
For NFHFVMGISVIRRLMSESQS the value was -0.366 ± 0.66; for VMDVFV, -0.292 ± 0.62; for HSCAFNESHVFMHILCVISQ, -0.319 ± 0.44.
WNSVVHINSVNYCV registered an amyloid nucleation score of 6.732 ± 0.059.
For VLFIWTLF the value was 0.341 ± 0.26; for PDRDYFLFFTLHCVCSSFAE, “inactive”.
On to KLAYKRSQMLTVVPRCSQGT, for which the amyloid nucleation score was -0.39 ± 0.53.
For CGALWALKV the value was -1.04 ± 0.78; for EHNNFFICVCWSAGTSVRMI, 7.992 ± 0.063.
With LHLNSCSQNITSLHYLPFWA, the amyloid nucleation score was -0.113 ± 0.39.
For CSFGQIPCNLDQTGLLRARG the value was 1.1 ± 0.55.
With YRPIDFLIPYSSVML, the amyloid nucleation score entry was “inactive”.
For IPDNVVF the value was -1.27 ± 1.4; for YVTMYVRMPGRFTTTHMWLI, -0.962 ± 0.63; for WYVLDDLHWIQGCNIGIVGG, “inactive”.
For WRYKIIRSR the value was 1.5 ± 0.4; for LPTHHCGLNVSSDGSNSELR, 0.068 ± 0.46; for YCHSVVFV, 0.352 ± 1.
In the case of FMIAFVFSKTRGQSIVSYSV, the amyloid nucleation score is -0.747 ± 0.85.
For FNYIFRWLVMGTGSCTGS the value was 0.45 ± 0.29; for HFMAI, -1.55 ± 0.8; for IFTAVSSVAFLSLINVLSLL, 2.75 ± 0.21.
For WFSAASGIMKEFSVG the value was -0.277 ± 0.36; for LNAKFIVKW, 0.588 ± 0.21.
As for ILVLRGCIKLR, the amyloid nucleation score entry was “inactive”.
Turning to AVFWSNYCSMSCMSKTKKKS, the amyloid nucleation score worked out at 0.159 ± 0.51.
Turning to DNGVLQNNWVIMYCELHHGV, the amyloid nucleation score was 5.691 ± 0.052.
For FHSMDEHVLLILTKNSV, the amyloid nucleation score was 0.317 ± 0.6.
As for SKILGISKVNCGALL, the amyloid nucleation score is -1.82 ± 1.8.
In turn, NDDYHTLSQCACSFALRADG gave an amyloid nucleation score of 1.08 ± 0.54.
For VQVQVGSFELNSGQRRSVLK the value was -0.516 ± 1.3.
Consider TWWCV, for which the amyloid nucleation score is -0.285 ± 0.27.
QLTLSNWLKTSAKA displayed an amyloid nucleation score of 2.5 ± 0.32.
For WLEGLKYKLAVDGRFNQSWG the value was -0.086 ± 0.81; for FFMIRRMLVTGWARQCIPRY, -0.105 ± 0.75; for CSGCYPRLCESMLNGNSGYV, 1.31 ± 0.31.
For NYSDYMWTRLANLA the value was -0.2 ± 0.72.
For YLQETLYNKWDWFGNHQGLM the value was 0.107 ± 0.26; for VFVICCKRREAG, -0.295 ± 0.34.
For the substance VMKLDGDPKQVFPGYSLMEG, the amyloid nucleation score was -0.092 ± 0.36.
For YTEETYKLCVWMSDRSIRLN the value was 0.001 ± 0.85; for SIWSGMLTGCFRLRSITWHN, 0.908 ± 0.24; for FLFRGV, -0.28 ± 0.91.
Turning to GCSVAASSESNNRSQQVGLT, the amyloid nucleation score is 1.02 ± 0.84.
On to PCLNRLVV, for which the amyloid nucleation score came out at 0.386 ± 0.5.
For SCFVSSSAIPWVIHSKFDLG, the amyloid nucleation score worked out at 0.143 ± 0.55.
RGRVSNY: the amyloid nucleation score is -0.455 ± 1.4.
LYTCCSTYVCSNLGRNVK showed an amyloid nucleation score of 7.074 ± 0.06.
For EPMMLY the value was 0.333 ± 0.28.
KTRFMLVLKLKRDNDLKMRF: the amyloid nucleation score was -0.288 ± 0.3.
RYICVTFISLGELPFYWWFT: the amyloid nucleation score was -1.55 ± 0.83.
For LVFGILHGCFEVVSGMLRVD the value was -0.801 ± 0.65; for RHVVRR, 0.441 ± 0.36; for TGWQCYSRANVVD, -0.98 ± 0.51.
For TYMTSTMQLRHTFFRSQANL the value was 2.7 ± 0.098.
For APTRACSNGDMLREE the value was 1.35 ± 0.51; for HVVKCGHYLRRVRNMGKLEF, -0.163 ± 0.79; for LVVVGGKLNLTTWNAR, 0.829 ± 1.
Take YYKCMATQVVGLLMSVWATY: the amyloid nucleation score came to 1.06 ± 0.85.
For GPPLWADNKVVLIR the value was -0.878 ± 0.94; for GYLIYSWVLVNWNSGLEINK, 2.62 ± 0.17.
Consider RADWYASAGKRCGHLQG, for which the amyloid nucleation score was -0.148 ± 0.3.
For RYHSY the value was -0.008 ± 0.77; for LSVVSWICRFDALQGHSCVK, -0.561 ± 0.41; for NVGYTYGYRKNSADNMAFCV, “inactive”.
SVGEDSSFRRDSKINEGDCD displayed an amyloid nucleation score of 0.968 ± 0.85.
For QHIPGDCFYHCCQFHCAQKE the value was 0.818 ± 0.77.
VTLSTAIVTNEFMSDISTGY: the amyloid nucleation score was -0.712 ± 0.52.
As to KESLLLTQCGYYMGSAKMVW, the amyloid nucleation score was -1.03 ± 1.1.
For CYSKKVLHCFKTSCLTLQVT the value was 1.27 ± 0.42; for YFRGNVNAWLLWSEICQVPF, 0.677 ± 0.88.
For NGLGFLNGRSSFGVGCYY, the amyloid nucleation score was -0.486 ± 0.28.
Consider ISNFVGTTMIIQGSVNTVYK, for which the amyloid nucleation score stood at 6.962 ± 0.055.
On to YFYDVMNLRCLVFNKSWFVL, for which the amyloid nucleation score stood at 0.119 ± 0.51.
For the substance SIYET, the amyloid nucleation score was found to be 0.524 ± 0.49.
In the case of HGTVNLIYVNEI, the amyloid nucleation score came to 0.133 ± 0.67.
For GASFVGTGKWVLTGWKTRRF the value was 0.124 ± 0.97; for MWSIYMHVAHLGMQTRGCCR, 1.76 ± 0.22.
Regarding NIVSALRYITPYYLAAYPIT, the amyloid nucleation score is 0.025 ± 0.36.
TNFANHRLGDPIMYSFHKGV: the amyloid nucleation score was -0.74 ± 0.37.
For FYSNWRYDGYWDDLGMNIIV the value was -0.372 ± 0.4; for SYIQLMSMMIFAHMTANRRN, 1.9 ± 0.42.
In the case of NLSGSFPN, the amyloid nucleation score was -0.2 ± 0.92.
For RLRITVTISATAGMMRRLHR the value was 2.39 ± 0.14; for DSIMNGR, 0.713 ± 0.74.
Turning to RSETGMYSAHACLL, the amyloid nucleation score is -0.314 ± 1.7.
For SKARKIWYAWLVTPPMRQTE the value was 0.667 ± 0.3; for FRVNCVAWDASGTYTYGR, 0.525 ± 0.4.
For LGGSDYVYANSFTTIGSSGV the value was -0.202 ± 0.21; for IVHIHGLQAANLAASWSANL, 2.68 ± 0.18.
SGSVTVCGIATTPCNMGDRK registered an amyloid nucleation score of 0.405 ± 0.79.
For RCNSDESYL the value was 0.078 ± 0.42.
For LHRALYLDRQLISWGTVSQM the value was -0.332 ± 0.42; for GALCCLCRSNHYVLQCGVKC, 1.47 ± 0.7.
For TMYTVVPNHWNNISFRALSR the value was -0.909 ± 0.74; for VGRRNKVAWVKLRHEVRRCV, 0.106 ± 0.52.
As for HCVLRFCNPG, the amyloid nucleation score entry was “inactive”.
As for SSYAHAVRTQDFKLASGHYV, the amyloid nucleation score is -0.7 ± 0.88.
As for SGKCIFSFE, the amyloid nucleation score was -0.065 ± 0.34.
VVVWVFHFYAC yielded an amyloid nucleation score of 1.16 ± 0.71.
DPDHGPFQNNVWQRRPRWSH gave an amyloid nucleation score of 0.124 ± 0.47.
For AIFNLVSSL, the amyloid nucleation score is -0.792 ± 1.
For SGNGRRWSVLTDLAMLLLWL the value was -0.316 ± 0.41; for IDSKFQPK, 0.972 ± 0.84; for KNVNAVR, 0.173 ± 0.79.
For GNTVQLGRAGRFHVYDLRGV the value was -0.357 ± 0.6.
For LQSYWRYRVKRFV, the amyloid nucleation score was -0.39 ± 0.39.
For VYLSRHTNRG the value was 1.53 ± 0.43; for VFVSCIILRRYFYMFLVGPF, 0.752 ± 0.45.
LEFGSSSGAIVMRGEDPCQP yielded an amyloid nucleation score of 0.649 ± 0.52.
For GFGAQPWRARSMFYK the value was 0.566 ± 0.67; for AFFPGNFWACGSFDFLWYWL, 3.38 ± 0.083; for RVDGHTVR, 2.4 ± 0.14.
For LGLFCESYDEADCRTEDSAC the value was 0.254 ± 0.3; for VLCLWISGLPVLCSVCDPLV, 0.1 ± 0.45.
For RLRLWFVASRMVDKGSGLNV the value was 0.67 ± 0.49; for AFYGVDFSSGRGLFSY, -0.574 ± 1.1.
Regarding YFPVGWLTLGISPCGVGDLF, the amyloid nucleation score is -0.151 ± 0.43.
HLYMDSSILRLVEYTWCFKV had an amyloid nucleation score of 0.085 ± 0.96.
